Experiment: Enzymatic deesterification of paprika oleoresin carotenoids, HPLC determination
Format: biochemical
Description: HPLC was conducted on a Shimadzu LC-10 AT equipped with SCL-10A Shimadzu diode array detector. Photodiode array measurements of spectral properties from the individual peaks (from 260 to 540 nm) were determined at the upslope, apex and downslope. The column (Merck RP-18e 3.4×250 […], 5-μm particles) was used for HPLC separations. The peaks were detected at 450 and 474 nm.
Deesteriflcation paprika oleoresin by enzymes: Paprika oleoresin (20 mg) was mixed with TWEEN-20 (200 μl) or deoxycholate (100 mg) and 10 ml of H2O. The emulsion has been shaken at 37° C. for 24 hours. Extraction of carotenoids was performed by the addition of 4 ml of ethanol and 5 ml of hexane. The extraction with hexane was done repeatedly until no color could be observed in the extracts. The combined hexane extracts were washed with water (25 ml) and dried over anhydrous sodium sulfate for HPLC determination of the carotenoids.

- deesterification in similar assays with other lipases, compared with lipase amano 30 (similar assays to FIGS. 3 and 4): far poorer results
B1: pancreatic lipase: lipase pancreatic from porcine, obtained from Sigma Chemical Co. (protein, UniProt P00591 1-450, looked up)
Pancreatic triacylglycerol …: SEVCFPRLGCFSDDAPWAGIVQRPLKILPWSPKDVDTRFLLYTNQNQNNYQELVADPSTITNSNFRMDRKTRFIIHGFIDKGEEDWLSNICKNLFKVESVNCICVDWKGGSRTGYTQASQNIRIVGAEVAYFVEVLKSSLGYSPSNVHVIGHSLGSHAAGEAGRRTNGTIERITGLDPAEPCFQGTPELVRLDPSDAKFVDVIHTDAAPIIPNLGFGMSQTVGHLDFFPNGGKQMPGCQKNILSQIVDIDGIWEGTRDFVACNHLRSYKYYADSILNPDGFAGFPCDSYNVFTANKCFPCPSEGCPQMGHYADRFPGKTNGVSQVFYLNTGDASNFARWRYKVSVTLSGKKVTGHILVSLFGNEGNSRQYEIYKGTLQPDNTHSDEFDSDVEVGDLQKVKFIWYNNNVINPTLPRVGASKITVERNDGKVYDFCSQETVREEVLLTLNPC
- extent of deesterification of paprika carotenoids (general statement, "shown herein"): to a very limited extent

Reference: patent US20040175785A1, “Increasing bioavailability of carotenoids” (priority 2001, published 2004)
